This note sets out measurements from US20250195685A1 (CAPSTAN THERAPEUTICS, published 2025).

The target of assay [1] is T1, human CD8αα homodimer, recombinant protein (Acro Biosystems) (human, UniProt P01732 22-182).
T1 construct: also called CD8αα antigen; biotinylated CD8α recombinant protein (CDA-H82E3)
The experiment in a line: BLI steady state, whole hIgG1-LALAPA antibody on CD8α-His (Ni-NTA sensor), 30 °C. As to the method: To assess affinity of whole antibodies, steady state analysis was used as the bivalent nature of both whole antibody and CD8α complicates kinetic analysis. 50 nM CD8α-His (that is, CD8α with a C-terminal oligohistidine tag; Acro) was immobilized on Ni-NTA sensor probes. Binding was analyzed with a three-fold antibody dilutions series: 60 nM, 20 nM, 6.67 nM, 2.22 nM, 0.74 nM, and 0.25 nM. The antigen-loaded sensors were incubated in the diluted solutions to capture the whole IgG antibody for 300 s to record the association phase. Sensors were incubated in the kinetic buffer for 900 s to record the dissociation phase. The spin speed was 1000 rpm for all steps except the antigen loading step which was 400 rpm to control density of the antigen. The temperature of the performed assays was at 30° C. during the association and dissociation phases. The sensor data were baseline subtracted and further analyzed in GatorOne software (version 2.10) to determine the equilibrium dissociation constants (KD) of the antibodies by fitting the signals of the steady states to the 1:1 binding model.

The target in assay [2] is T2, human CD8 on cells (CD8-overexpressing HEK293T cells, SupT1, HPB-ALL, human T cells, transfected HEK293 of … (human, UniProt P01732 22-235)).
T2 construct: whole, on cells; also called cell surface CD8
Description: flow cytometry, Human Expanded T cells Donor 5, gated on CD4- T cells, anti-human Fc BV421. As to the method: Binding was measured by fluorescence from the BV421 fluorophore-conjugated anti-human Fc secondary antibody that recognize the binders. The gMFI was normalized to the gMFI of the secondary antibody in the absence of the anti-CD8α binders.
To obtain the results shown in FIG. 8A and FIG. 8B, 5×10⁴ expanded primary T cells (human, cynomolgus macaque or rhesus monkey) were thawed and transferred to a V bottom 96-well culture plate (Corning). Cells were washed twice with Cell Staining buffer (#420201, Biolegend). Each anti-CD8α antibody was diluted in four-fold antibody titration series from 60 μg/mL to 0.057 ng/mL into Cell Staining buffer. […] Cells were then washed three times with Cell Staining buffer and primary antibody binding was detected by staining with anti-human Fc BV421 conjugate antibody (#410704, Biolegend) at 1:200 dilution for 30 minutes on ice. […] Flow cytometry data was analyzed by Flowjo 10 (Becton, Dickinson & Company) to measure the geometric median fluorescence intensity (gMFI) of the on-cell binding from each antibody. The gMFI values were normalized with the gMFI measured in the sample stained with only the secondary detection antibody and plotted against the concentration of the added antibodies. The binding curves were constructed using Graphpad Prism software, and EC₅₀ values were determined by non-linear curve fitting.
Background: In flow cytometry, cells or beads pass a laser one at a time.

Assay [3] concerns the target T1, human CD8αα homodimer, recombinant …. The experiment in a line: BLI binding kinetic analysis, whole antibody, sample kept at pH 7.2, 4C (unstressed). For orientation: BLI is a label-free optical method that tracks binding on a fibre tip over time.
The target in assay [4] is T2, human CD8 on cells (CD8-overexpressing …). The experiment in a line: flow cytometry on CD8-overexpressing HEK293T cells, non-linear fit of normalized gMFI. As to the method:
To obtain the results shown in FIG. 3A, that determined EC₅₀ values for antigen-specific binding, CD8-overexpressing HEK293T cells were dissociated in Versine solution (PBS buffer at pH 7.4 supplemented with 0.5 mM EDTA), and 2×10⁵ total cells were transferred to a V-bottom 96 well culture plate (Corning). Cells were washed twice with Cell Staining buffer (#420201, Biolegend). Each anti-CD8α antibody with human IgG1 isotype and Fc-silencing mutations L234A, L235A and P329A was diluted in four-fold antibody titration series from 100 μg/mL to 6.1 ng/ml into Cell Staining buffer. eFluor 780 Fixable Viability dye (eBioscience) was also included during antibody solutions at a 1:4000 dilution. Cells were stained with each diluted antibody solution for 30 minutes on ice. Cells were then washed three times with Cell Staining buffer and primary antibody binding was detected by staining with anti-human Fc BV421 conjugate antibody (#410704, Biolegend) at 1:100 dilution for 30 minutes on ice. After staining with the secondary detection antibody, cells were washed three times with Cell Staining buffer, fixed in FluoroFix buffer (Biolegend) and kept at 4° C. in the dark until analysis. Flow cytometry analysis on each sample was performed on an Agilent NovoCyte flow cytometer. Flow cytometry data was analyzed by Flowjo 10 (Becton, Dickinson & Company) to measure the geometric median fluorescence intensity (gMFI) of the on-cell binding from each antibody. The gMFI values were normalized with the gMFI measured in the sample stained with only the secondary detection antibody and plotted against the concentration of the added antibodies. The binding curves were constructed using the Graphpad Prism software, and EC₅₀ values were determined by non-linear curve fitting.

Assay [5] addresses T3, rhesus macaque CD8 on expanded primary T cells (rhesus macaque).
T3 construct: also called CD4- CD8+ rhesus T cells
The experiment in a line: flow cytometry, Rhesus Expanded T cells Donor 9, gated on live CD8 T cells (via CD3+CD4-). As to the method:
To obtain the results shown in FIG. 8A and FIG. 8B, 5×10⁴ expanded primary T cells (human, cynomolgus macaque or rhesus monkey) were thawed and transferred to a V bottom 96-well culture plate (Corning). Cells were washed twice with Cell Staining buffer (#420201, Biolegend). Each anti-CD8α antibody was diluted in four-fold antibody titration series from 60 μg/mL to 0.057 ng/mL into Cell Staining buffer. Cells were stained with each diluted antibody solution for 30 minutes on ice. Cells were then washed three times with Cell Staining buffer and primary antibody binding was detected by staining with anti-human Fc BV421 conjugate antibody (#410704, Biolegend) at 1:200 dilution for 30 minutes on ice. […] Flow cytometry data was analyzed by Flowjo 10 (Becton, Dickinson & Company) to measure the geometric median fluorescence intensity (gMFI) of the on-cell binding from each antibody. The gMFI values were normalized with the gMFI measured in the sample stained with only the secondary detection antibody and plotted against the concentration of the added antibodies. The binding curves were constructed using Graphpad Prism software, and EC₅₀ values were determined by non-linear curve fitting.

The Kd is a measure of binding affinity in units of concentration. One may read the EC50 (read off the curve) as the concentration at which the effect is half-maximal. Read a high EC50 (read off the curve) as a need for much substance. A word on the koff: it is a measure of how fast the partners let go of each other. In general, kon refers to the rate constant with which the complex forms. As usually defined, the EC50 is the concentration giving half of the maximal effect. A high value points to lower potency in that assay.

T1 sequence (P01732 22-182 limits assumed): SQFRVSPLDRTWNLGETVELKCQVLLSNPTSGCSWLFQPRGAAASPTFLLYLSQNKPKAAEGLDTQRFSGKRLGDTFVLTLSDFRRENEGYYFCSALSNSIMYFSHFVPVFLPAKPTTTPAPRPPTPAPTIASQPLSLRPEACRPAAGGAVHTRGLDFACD
T2 sequence (P01732 22-235): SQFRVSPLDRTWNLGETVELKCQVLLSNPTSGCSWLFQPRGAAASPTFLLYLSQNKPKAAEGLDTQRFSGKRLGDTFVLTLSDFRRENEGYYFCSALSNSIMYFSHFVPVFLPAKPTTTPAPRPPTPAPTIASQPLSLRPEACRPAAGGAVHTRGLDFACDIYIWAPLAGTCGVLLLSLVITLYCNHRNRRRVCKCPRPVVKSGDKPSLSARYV

B1: CBD1017ch whole antibody (chimeric CT8 antibody) (antibody, V domains shown)
VH: EVQLQQSGPELVKPGASVKISCKASRYTFTDYNLHWVKLSHEKSLEWIGFIYPYNGGTGYNQKFKNKAKLTVDYSSSTAYMELRSLTSVDAAVYYCARDHRYNEGVSFDYWGQGTTLTVSS
VL: NIVLTQSPASLAVSLGQRATISCRASESVDGFGNSFMNWYQQKPGQSPKLLIYLASNLESGVPARFSGSGSRTDFTLTIDPVEADDAATYYCQQNNEDPYTFGGGTKLEIK
notes: Chimeric antibody comprising the variable regions of the donor antibody CT8; detected with anti-human Fc
B1: the results for the Kd in assay [1] and in assay [3] were 0.58 nM and 0.43 nM, respectively. Also, the “EC50 (read off the curve)” value in assay [2] was ~0.05 µg/mL. Moreover, the koff in assay [3] was determined as 0.000655 s⁻¹. Besides, the kon in assay [3] stood at 1.53e+06 M⁻¹ s⁻¹. Further, the EC50 in assay [4] is 2.75 nM; in assay [5], 0.308 nM.

B2: CBD1033 whole antibody, human IgG1 with Fc-silencing mutations L234A, L235A and P329A (CBD1033-hIgG1-LALAPA) (antibody, V domains shown)
VH: QVQLVQSGAEVKKPGASVKVSCKASRYTFTDYNLHWVRQAPGQGLEWMGFIYPYNGGTGYAQKFQGRVTMTVDTSTSTAYMELSSLRSEDTAVYYCARDHRYNEGVSFDYWGQGTTVTVSS
VL: DIQLTQSPSSLSASVGDRATITCRASESVDGFGNSFMNWYQQKPGKAPKLLIYLASNLESGVPSRFSGSGSGTDFTLTISSVQPEDFATYYCQQNNEDPYTFGQGTKLEIKR
notes: On tLNPs the antibody was SATA-modified or AJICAP-thiolated (CBD1033.29) and conjugated to the LNP; also called CBD1033.3; CBD1033 IgG1
For the molecule B2, the Kd in assay [1] turned out to be 2.27 nM; in assay [3], 1.66 nM. Also, in assay [2], the “EC50 (read off the curve)” value was ~0.1 µg/mL. Moreover, the koff in assay [3] stood at 0.00308 s⁻¹. Also, the kon in assay [3] is 1.85e+06 M⁻¹ s⁻¹. Further, the values for the EC50 in assay [4] and in assay [5] were 2.78 nM and 0.993 nM, respectively.
